Test results published in patent US7034007.

Legend:
[1] = biological target: B2 bradykinin receptor (rabbit airway smooth muscle membranes) (rabbit) (UniProt Q28642); experiment: radioligand binding, airway smooth muscle membranes of saline-treated control allergic rabbits
[2] = biological target: B2 bradykinin receptor (rabbit airway smooth muscle membranes) (rabbit) (UniProt Q28642); experiment: radioligand binding, airway smooth muscle membranes of allergic rabbits treated with B2MM mismatch oligo, 2 mg total
[3] = biological target: B2 bradykinin receptor (rabbit airway smooth muscle membranes) (rabbit) (UniProt Q28642); experiment: radioligand binding, airway smooth muscle membranes of allergic rabbits treated with B2MM mismatch oligo, 20 mg total
[4] = biological target: B2 bradykinin receptor (rabbit airway smooth muscle membranes) (rabbit) (UniProt Q28642); experiment: radioligand binding, airway smooth muscle membranes of allergic rabbits treated with B2MM mismatch oligo, 0.2 mg total
[5] = biological target: B2 bradykinin receptor (rabbit airway smooth muscle membranes) (rabbit) (UniProt Q28642); experiment: radioligand binding, airway smooth muscle membranes of allergic rabbits treated with A1MM1 mismatch control oligo, 2 mg total
[6] = biological target: B2 bradykinin receptor (rabbit airway smooth muscle membranes) (rabbit) (UniProt Q28642); experiment: radioligand binding, airway smooth muscle membranes of allergic rabbits treated with A1MM1 mismatch control oligo, 20 mg total
[7] = biological target: B2 bradykinin receptor (rabbit airway smooth muscle membranes) (rabbit) (UniProt Q28642); experiment: radioligand binding, airway smooth muscle membranes of allergic rabbits treated with adenosine A1 receptor antisense oligo, 2 mg total
[8] = biological target: B2 bradykinin receptor (rabbit airway smooth muscle membranes) (rabbit) (UniProt Q28642); experiment: radioligand binding, airway smooth muscle membranes of allergic rabbits treated with adenosine A1 receptor antisense oligo, 20 mg total
[9] = biological target: B2 bradykinin receptor (rabbit airway smooth muscle membranes) (rabbit) (UniProt Q28642); experiment: radioligand binding, airway smooth muscle membranes of allergic rabbits treated with B2A bradykinin receptor antisense oligo, 2 mg total
[10] = biological target: B2 bradykinin receptor (rabbit airway smooth muscle membranes) (rabbit) (UniProt Q28642); experiment: radioligand binding, airway smooth muscle membranes of allergic rabbits treated with adenosine A1 receptor antisense oligo, 0.2 mg total
[11] = biological target: B2 bradykinin receptor (rabbit airway smooth muscle membranes) (rabbit) (UniProt Q28642); experiment: radioligand binding, airway smooth muscle membranes of allergic rabbits treated with B2A bradykinin receptor antisense oligo, 20 mg total
[12] = biological target: B2 bradykinin receptor (rabbit airway smooth muscle membranes) (rabbit) (UniProt Q28642); experiment: radioligand binding, airway smooth muscle membranes of allergic rabbits treated with B2A bradykinin receptor antisense oligo, 0.2 mg total

UniProt Q28642, sequence (Q28642 whole entry): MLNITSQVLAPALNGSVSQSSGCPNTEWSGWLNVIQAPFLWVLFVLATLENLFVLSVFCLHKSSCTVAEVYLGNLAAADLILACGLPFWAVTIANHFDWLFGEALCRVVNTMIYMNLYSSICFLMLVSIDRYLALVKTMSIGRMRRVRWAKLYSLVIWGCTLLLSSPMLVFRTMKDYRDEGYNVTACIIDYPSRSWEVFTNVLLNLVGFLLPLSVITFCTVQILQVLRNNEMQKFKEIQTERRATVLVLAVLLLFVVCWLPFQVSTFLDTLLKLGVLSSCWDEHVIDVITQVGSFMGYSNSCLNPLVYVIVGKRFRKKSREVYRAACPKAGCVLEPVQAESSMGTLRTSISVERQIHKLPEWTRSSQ

Bmax [1]: 14.2 fmol | Kd [1]: 0.39 nM | Bmax [2]: 14.8 fmol | Kd [2]: 0.37 nM | Bmax [3]: 14 fmol | Kd [3]: 0.41 nM | Bmax [4]: 15.1 fmol | Kd [4]: 0.36 nM | Bmax [5]: 14.6 fmol | Kd [5]: 0.38 nM | Bmax [6]: 14 fmol | Kd [6]: 0.35 nM | Bmax [7]: 15.5 fmol | Kd [7]: 0.41 nM | Bmax [8]: 14.8 fmol | Kd [8]: 0.39 nM | Bmax [9]: 11.9 fmol | Kd [9]: 0.34 nM | Bmax [10]: 15 fmol | Kd [10]: 0.34 nM | Bmax [11]: 8.7 fmol | Kd [11]: 0.38 nM | Bmax [12]: 15.1 fmol | Kd [12]: 0.35 nM
Substance: [3H]NPC 17731 (peptide)
